We go through 8 molecules from patent US6932973B2, “Peptides which stimulate the expression of the cytokines of inflammation and promote tissue regeneration” (Centre National de la Recherche Scientifique—CNRS, priority 1999, dated 2005).

Entries after “also recorded” stand apart in the source; their conditions may differ. Read-outs that look alike come from different tables or passages of the source.

Series [1] relates to human mononucleated cells of the peripheral blood (PBMCs). In words: Incorporation of tritiated thymidine in PBMCs (proliferation). Format: cell-based. The conditions noted are these: for activation response of PBMCs compared to the HARP protein: 1 ng/ml HARP, 1 μg/ml peptides (FIG. 6). The procedure: The PBMCs were cultured for 7 days in RPMI culture medium containing 10% fetal calf serum in the absence of or in the presence of 1 ng/ml HARP protein or 1 μg/ml of peptides 1 or 2. The incorporation of tritiated thymidine was determined as described above.
Human mononucleated cells originating from different healthy donors were isolated from peripheral blood after centrifugation on a Ficoll-Hypaque pad (Pharmacia Biotech) in accordance with the manufacturer's instructions. The cells were washed then cultured in RPMI 1640 medium supplemented by 10% heat-inactivated fetal calf serum (56° C., 30 min), 100 units/ml of penicillin and 100 μg/ml of streptomycin. The cells were inoculated at the rate of 10^6 cells per ml in a 96-well (round bottoms) culture plate (Costar). They were cultured for 7 days in the presence or not of human recombinant HARP protein produced in E. coli at the concentration of 100 ng/ml. In the last 18 hours of culture, 1 μCi of tritiated thymidine was added to each of the wells. The radioactivity incorporated in the cell nuclei was then measured using a scintillation counter.

In the next series the test system is IL-6. The series can be described thus: Expression of IL-6 by PBMCs (ELISA). Format: cell-based, human. Here is the method: (§1) Quantitative determination of these cytokines was performed using an ELISA test from R&D.
Quantitative determination of these cytokines was performed after 7 days of incubation using an ELISA test from R&D.
(§2) The cells were isolated from peripheral blood of normal subjects (blood donors) and collected in a Vacutainer tube containing EDTA. Mononucleated cells were separated by ficoll gradient, counted and adjusted to 10^6 per ml. The cells were incubated for 3 or 7 days at 37° C. in humid atmosphere with 5% CO2 in the presence of variable concentrations of HARP ranging from 1 to 1000 ng/ml or other peptides which are mentioned in the legends of the figures.
(In general: An ELISA detects its analyte on a solid surface through an enzyme-linked reagent.)

Series [2] has as its system PBMCs treated by tetanus toxin.
A further series relates to HUVEC cells. The series can be described thus: Mitogenic activity on HUVEC cells (cell counting). In kind it is cell-based. The settings on record: wells coated with 100 ng/ml, 72 hours of culture, triplicate. The procedure: The cells used were HUVEC cells (Clonetics) used between passages 1 to 5. Each of the wells of a 48-well culture plate (Costar) was incubated for 1 night at 4° C. with a solution of HARP (100 ng/ml), of purified HARP peptide (100 ng/ml) or solely the negative control buffer. After rinsing the wells with a PBS solution, the cells were inoculated at the rate of 2×10^4 cells per cm^2 in the DMEM culture medium containing 2% of fetal calf serum. Each quantitative determination was performed in triplicate.
Induction of cellular proliferation was assessed by counting the cells after 72 hours of culture.

A further series has as its system soleus muscle. Format: in vivo, Wistar rat. The settings on record: 1 μg injected in 50 μl into crushed rat soleus, 4 days.
Series [3] concerns cytokines of inflammation (TNF-alpha, IL-1, IL-6). The series can be described thus: Expression/production of the cytokines of inflammation. In kind it is cell-based, human.
For another series, the system named is IL-1β. The series can be described thus: Expression of IL-1 by PBMCs (ELISA). The settings on record: HARP 1 to 1000 ng/ml, 3 or 7 days. Format: cell-based, human. Here is the method: as §1, §2
Another series has as its system TNF-α. In words: Expression of TNF-α by PBMCs (ELISA). Format: cell-based, human. The settings on record: HARP 1 to 1000 ng/ml, 3 or 7 days. Here is the method: as §1, §2
The next series has as its system NIH 3T3 cells. The conditions noted are these: read-out: Kd of strong affinity HARP binding sites; cited from earlier work.
Series [4] has as its system PBMCs treated by an anti-CD3.
The next series deals with syndecan-3 (Rattus norvegicus, UniProt P33671). The conditions noted are these: read-out: apparent Kd; cited from earlier work.
Sequence of syndecan-3 (P33671 45-442): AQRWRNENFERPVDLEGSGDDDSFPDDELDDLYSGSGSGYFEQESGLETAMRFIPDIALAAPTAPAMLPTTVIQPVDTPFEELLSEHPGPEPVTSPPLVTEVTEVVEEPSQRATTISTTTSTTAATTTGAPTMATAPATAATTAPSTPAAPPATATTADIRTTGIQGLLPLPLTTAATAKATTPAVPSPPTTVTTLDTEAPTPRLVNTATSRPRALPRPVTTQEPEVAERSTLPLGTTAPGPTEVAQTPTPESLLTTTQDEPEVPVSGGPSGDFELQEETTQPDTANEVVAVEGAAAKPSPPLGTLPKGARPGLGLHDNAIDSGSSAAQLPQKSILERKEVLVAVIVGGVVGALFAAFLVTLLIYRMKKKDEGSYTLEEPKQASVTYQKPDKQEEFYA
Series [5] relates to lymphoid cells (PBMC culture). The series can be described thus: Determination of the amplified lymphoid cell population in a PBMC culture. In kind it is cell-based, human. The conditions noted are these: HARP 1 μg/ml, PBMC culture 5 days. Here is the method:
The cells were isolated from peripheral blood of normal subjects (blood donors) and collected in a Vacutainer tube containing EDTA. Mononucleated cells were separated by ficoll gradient, counted and adjusted to 10^6 per ml. The cells were incubated for 5 days at 37° C. in humid atmosphere with 5% CO2 in the presence of HARP or other peptides at concentrations which are mentioned in each of the Examples described.
Table II presents the effects of the HARP molecule tested at a concentration of 1 μg/ml on the proliferation of lymphoid cells.

For another series, the system named is IL-2. In words: IL-2 levels after incubation of PBMCs with HARP. In kind it is cell-based, human. The conditions noted are these: after incubation of PBMCs with HARP factor.
In the next series the target is phosphacan (Rattus norvegicus, UniProt Q62656). The settings on record: cited from earlier work.
Sequence of phosphacan (Q62656 25-1616 isoform Q62656-3 limits assumed): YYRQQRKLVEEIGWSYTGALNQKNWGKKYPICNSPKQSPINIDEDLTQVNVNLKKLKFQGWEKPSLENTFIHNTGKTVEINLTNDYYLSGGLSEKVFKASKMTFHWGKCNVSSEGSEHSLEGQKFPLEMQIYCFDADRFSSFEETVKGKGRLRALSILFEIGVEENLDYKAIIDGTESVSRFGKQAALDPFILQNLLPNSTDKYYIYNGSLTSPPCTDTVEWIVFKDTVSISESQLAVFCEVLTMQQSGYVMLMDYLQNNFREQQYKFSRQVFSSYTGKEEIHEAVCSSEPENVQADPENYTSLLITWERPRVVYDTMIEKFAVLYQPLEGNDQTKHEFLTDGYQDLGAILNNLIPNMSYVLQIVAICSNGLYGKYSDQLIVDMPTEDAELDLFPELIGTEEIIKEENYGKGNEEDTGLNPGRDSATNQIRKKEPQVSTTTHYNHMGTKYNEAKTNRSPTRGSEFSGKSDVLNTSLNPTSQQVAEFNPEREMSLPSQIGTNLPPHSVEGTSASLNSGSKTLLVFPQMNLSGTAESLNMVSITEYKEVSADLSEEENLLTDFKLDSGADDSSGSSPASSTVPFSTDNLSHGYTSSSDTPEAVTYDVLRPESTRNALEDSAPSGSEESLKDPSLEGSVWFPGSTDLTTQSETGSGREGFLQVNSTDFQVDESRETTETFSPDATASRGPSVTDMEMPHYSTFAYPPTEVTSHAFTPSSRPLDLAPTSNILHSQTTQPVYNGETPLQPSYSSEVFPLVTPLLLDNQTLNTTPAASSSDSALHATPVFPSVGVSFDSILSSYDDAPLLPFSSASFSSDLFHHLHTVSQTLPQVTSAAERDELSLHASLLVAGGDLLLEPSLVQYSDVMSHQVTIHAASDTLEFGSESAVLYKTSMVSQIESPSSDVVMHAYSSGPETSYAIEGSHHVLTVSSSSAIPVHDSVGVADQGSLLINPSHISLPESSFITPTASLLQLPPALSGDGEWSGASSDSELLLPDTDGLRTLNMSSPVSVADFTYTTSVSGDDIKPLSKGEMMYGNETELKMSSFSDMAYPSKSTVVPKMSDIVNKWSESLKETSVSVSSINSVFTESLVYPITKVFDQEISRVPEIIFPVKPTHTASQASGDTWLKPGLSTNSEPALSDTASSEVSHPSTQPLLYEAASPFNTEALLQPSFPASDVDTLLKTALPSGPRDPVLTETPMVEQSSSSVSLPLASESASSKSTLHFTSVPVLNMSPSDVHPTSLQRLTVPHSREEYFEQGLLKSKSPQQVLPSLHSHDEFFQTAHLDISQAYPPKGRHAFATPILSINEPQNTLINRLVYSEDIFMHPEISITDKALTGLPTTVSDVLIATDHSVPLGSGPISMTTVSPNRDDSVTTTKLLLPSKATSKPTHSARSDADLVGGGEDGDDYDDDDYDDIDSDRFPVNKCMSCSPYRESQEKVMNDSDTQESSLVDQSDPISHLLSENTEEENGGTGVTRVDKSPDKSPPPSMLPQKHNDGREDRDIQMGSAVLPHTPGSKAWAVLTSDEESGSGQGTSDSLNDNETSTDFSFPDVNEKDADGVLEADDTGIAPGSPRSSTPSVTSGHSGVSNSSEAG
The mark [6] stands for this setting: peptides, 7 days of incubation (FIG. 10).
Setting [7] is: added to PBMCs, result not shown.
Where [8] appears, read: 7 days, anti-CD3 1/100, HARP 1 ng/ml.

On to “NH2-AESKKKKKEGKKQEKMLD-COOH (H-AESKKKKKEGKKQEKMLD-OH) [Peptide 2, peptide corresponding to the terminal COOH part of HARP; 18 amino acids]”, for which the “activation response of PBMCs compared to the HARP protein” value in [1] (7 days) is listed as “close to two times higher”. Besides, the “expression of IL-6” value in the series with IL-6 (setting [6]) is “capable of stimulating the expression of IL-6”.

tetanus toxin [reference compound]: in series [2], the incorporated tritiated thymidine was 43,000±500 cpm and the “stimulation of incorporation of tritiated thymidine in relation to the control” value (shortened to “stimulation of incorporation … to the control”) is on record as 71 times.

On to “GKKEKPEKKVKKSD [HARP peptide, N terminal peptide (amino acids 1-14) of human HARP obtained by recombination in a eukaryote expression system]”, for which, in the series on HUVEC cells, the Number of cells is recorded as 12,000 ± 14,000.

Consider “NH2-AEAGKKEKPEKKVKKSDCGEW-COOH (H-AEAGKKEKPEKKVKKSDCGEW-OH) [Peptide 1]”, for which the “activation response of PBMCs compared to the HARP protein” value in series [1] (7 days) is listed as “close to half that of HARP”. The “activation response of PBMCs compared to the control” value in series [1] (7 days, 1 μg/ml peptide (FIG. 6)) was “more than two times higher”. Also, in the series with soleus muscle, the “number of mononucleated cells in treated muscle versus peptide 2 or PBS” value is recorded as “much higher”. For the same molecule, in the series with IL-6 (setting [6]), the “expression of IL-6” value is recorded as “capable of stimulating the expression of IL-6”.

With “angiogenin: molecule presenting a homologous protein domain [reference compound]”, in series [3] (setting [7]), the “expression of the inflammatory cytokines” value is listed as “Augmentation of the expression”.

B1: MK: protein that exhibits 50% homology in amino acids with HARP (protein, UniProt P21741 21-143, looked up)
Midkine: VAKKKDKVKKGGPGSECAEWAWGPCTPSSKDCGVGFREGTCGAQTQRIRCRVPCNWKKEFGADCKYKFENWGACDGGTGTKVRQGTLKKARYNAQCQETIRVTKPCTPKTKAKAKAKKGKGKD
For the molecule B1, the “stimulation of tritiated thymidine incorporation in PBMCs” value in series [1] (MK 0.1 to 500 ng/ml) is “no induction; also recorded: No stimulation”.

B2: HARP: angiogenic growth factor; human recombinant HARP protein produced in E. coli (protein, UniProt P21246 33-168, looked up)
Pleiotrophin: GKKEKPEKKVKKSDCGEWQWSVCVPTSGDCGLGTREGTRTGAECKQTMKTQRCKIPCNWKKQFGAECKYQFQAWGECDLNTALKTRTGSLKRALHNAECQKTVTISKPCGKLTKPKPQAESKKKKKEGKKQEKMLD
Take B2: in the series on HUVEC cells, the Number of cells is on record as 129,000 ± 26,000. The cell mortality result in [2] is recorded as “high cell mortality”. For the same molecule, in [2] (7 days), the incorporated tritiated thymidine is 3500±200 cpm and the “stimulation of incorporation … to the control” value stood at 5.8 times. In addition, in series [1], the “concentration at which active on the proliferation of lymphocytes” value was roughly 10 pM. Besides, the “increase in the number of cells in relation to the untreated control” value in series [1] (HARP 100 ng/ml, experiment no. 7) was found to be 2.9 times. Moreover, in series [1] (dose-response 0.1 to 500 ng/ml), the “HARP concentration at which maximum effect is attained” value is 1 ng/mL. Also, the “expression of IL-1β” value with IL-1β was “capable of inducing in a dose-dependent manner”. The “expression of TNF-α” value with TNF-α is recorded as “capable of inducing in a dose-dependent manner”. Moreover, the Kd with NIH 3T3 cells was 0.6 nM. For the same molecule, in series [4] (setting [8]), the incorporated tritiated thymidine came out at 3500 cpm and the “stimulation of incorporation … to the control” value is listed as 5.8 times. In addition, the “incorporation of thymidine” value in series [4] (HARP 10 and 100 ng/ml in the presence of anti-CD3) is “a weaker and a very low incorporation”. Besides, in series [4] (HARP alone at 10 and 100 ng/ml), the cellular mortality entry was “not seen”. The Kd with syndecan-3 is 0.8 nM. The cell death entry in the series on HIV (HARP 100 ng/ml, PBMCs from an AIDS patient) was “noteworthy cell death”. In addition, the “HARP concentration at which production of viral antigen p24 is maximal” value in the series with HIV (PBMCs from an AIDS patient (CD4<200/mm^3), 3 days, HARP 0.1-100 ng/ml) is 1 ng/mL. In addition, in series [5], the CCD2 positive cells came to 95%, the “CCD4+ CD45RA+ cells” value was determined as 15%, the “CCD4+ CD45RO+ cells” value worked out at 49% and the CCD4 positive cells stood at 68%. In [5], the CCD8 positive cells is recorded as 22%, the CCD16/56 positive cells was 18%, the CCD19 positive cells stood at 4% and the CCD25 positive cells is recorded as 47%. For the same molecule, in [5], the CCD45RA positive cells amounted to 34%, the CCD45RO positive cells came to 64%, the “Variation of CCD4+ CD45RA+ versus control” value is −31% and the “Variation of CCD4+ CD45RO+ versus control” value was “+133%”. For the same molecule, the “Variation of CCD45RO versus control” value in series [5] is on record as “+113%”. Moreover, the “RA/RO (CCD4+ CD45RA+ / CCD4+ CD45RO+)” value in series [5] (CD4+ cells) turned out to be 0.3 ratio. In addition, the “RA/RO (CCD45RA / CCD45RO)” value in [5] (all cells) was 0.5 ratio. In the series with IL-2, the “IL-2 levels” value is “no increase”. Also, the “expression of the inflammatory cytokines” value in series [3] (HARP molecule denatured) is “No expression”. In [3] (in vitro and in vivo), the “stimulation of the production of cytokines of inflammation” value was “more than 100 times”. The “expression of IL-6” value in the series with IL-6 (HARP 1 to 1000 ng/ml, 3 or 7 days) is given as “capable of inducing in a dose-dependent manner”. For the same molecule, in the series with phosphacan (read-out: Kd, binding sites of strong affinity), the Kd is 0.25 nM. The Kd in the series with phosphacan (read-out: Kd, binding sites of weak affinity) is 3 nM.

B3: tat protein: molecule presenting a homologous protein domain (protein, UniProt P04608 1-86, looked up)
Protein Tat: MEPVDPRLEPWKHPGSQPKTACTNCYCKKCCFHCQVCFITKALGISYGRKKRRQRRRAHQNSQTHQASLSKQPTSQPRGDPTGPKE
In the case of B3, the “expression of the inflammatory cytokines” value in series [3] (setting [7]) is given as “Augmentation of the expression”.
